Source: article PMC11190991, “Encapsulation of Transketolase into In Vitro-Assembled Protein Nanocompartments Improves Thermal Stability” (ACS Applied Bio Materials, 2024)

Columns and labels:
[1] = biological target: Thermotoga maritima encapsulin (T = 1 capsid shell) (Thermotoga maritima) (UniProt Q9WZP2); assay: SEC; in vitro loading during reassembly (10 μM encapsulin monomer, cargo at stated molar ratio), SEC on Superose 6 to remove non-encapsulated cargo, co-eluted cargo seen by SDS-PAGE and quantified by densitometry against standard curves
[2] = biological target: E. coli transketolase with C-terminal T. maritima cargo loading peptide (E. coli | T. maritima)
[3] = biological target: Myxococcus xanthus encapsulin (T = 1 and T = 3 capsid shells) (Myxococcus xanthus) (UniProt Q1D6H4); assay: SEC; in vitro loading during reassembly (10 μM encapsulin monomer, cargo at stated molar ratio), SEC on Superose 6 to remove non-encapsulated cargo, co-eluted cargo seen by SDS-PAGE and quantified by densitometry against standard curves
[4] = biological target: Myxococcus xanthus encapsulin (T = 1 and T = 3 capsid shells) (Myxococcus xanthus) (UniProt Q1D6H4); assay: co-purification after co-expression + SDS-PAGE densitometry; in vivo loading: sfGFP-CLP co-expressed with Strep-tagged encapsulin in E. coli, capsids purified (SEC purified samples), cargo quantified by SDS-PAGE densitometry; single experiment
[5] = biological target: Thermotoga maritima encapsulin (T = 1 capsid shell) (Thermotoga maritima) (UniProt Q9WZP2); assay: as above
[6] = biological target: the molecule itself; assay: native gel or EMSA; BN-PAGE of samples disassembled in denaturant: 6 M GuHCl, 8 M urea (20 mM Tris-Cl pH 7.5), 0.15 M HCl pH 1.0 or 0.15 M NaOH pH 13.0
Q9WZP2 = assay: SEC; Superose 6 10/300 GL, 20 mM Tris-Cl, 50 mM NaCl, pH 7.5; A280 peak area of higher-order structures after reassembly against before disassembly; Tm_encap from 0.15 M NaOH, Mx_encap from 8 M urea

**Q.** For “E. coli transketolase with C-terminal T. maritima cargo loading peptide (enzyme)”, which stoichiometry N (dimers per capsid) [1] is on record?
**A.** 2.6

**Q.** What about the end-point transketolase activity (erythrulose from HPA and GA) of TK-TmCLP encapsulated in Tm encap, against free TK (100%) [2] of the same molecule?
**A.** 50 % drop

**Q.** Which stoichiometry N (copies per capsid) [3] does the source give for “superfolder GFP with C-terminal M. xanthus cargo loading peptide” here?
**A.** 20

**Q.** And the stoichiometry N (copies per capsid) [4]?
**A.** 31

**Q.** Which stoichiometry N (copies per capsid) [1] does the source give for “superfolder GFP with C-terminal T. maritima cargo loading peptide” here?
**A.** 15

**Q.** And the stoichiometry N (molecules per capsid) [5]?
**A.** 2.94

B1: Thermotoga maritima encapsulin (T = 1 capsid shell) (natural protein, UniProt Q9WZP2 1-265, looked up)
chain: MEFLKRSFAPLTEKQWQEIDNRAREIFKTQLYGRKFVDVEGPYGWEYAAHPLGEVEVLSDENEVVKWGLRKSLPLIELRATFTLDLWELDNLERGKPNVDLSSLEETVRKVAEFEDEVIFRGCEKSGVKGLLSFEERKIECGSTPKDLLEAIVRALSIFSKDGIEGPYTLVINTDRWINFLKEEAGHYPLEKRVEECLRGGKIITTPRIEDALVVSERGGDFKLILGQDLSIGYEDREKDAVRLFITETFTFQVVNPEALILLKF
notes: T = 1 capsid, 1.97 MDa; also called T. maritima encapsulin; source: E. coli BL21 Star (DE3), purified (Strep-TactinXT); disassembled and reassembled in vitro; also co-expressed with sfGFP-TmCLP for in vivo loading; not shown: Strep-Tag II (after a GSG linker), C-terminal, kept; copies: 60
**Q.** Which “stoichiometry N” value [6] does the source give for B1 here?
**A.** 2

**Q.** What about the “recovery of higher-order structures after reassembly (SEC peak area, 8-14 mL)” value (Q9WZP2) of the same molecule?
**A.** we determined the recovery to be 82%
